Data on 16 substances can be found in patent publication US11306156.

Several values for one entry are separate records, joined by “and”; a condition that tells them apart may be missing. Equal entries are not always repeated.

Test [1] deals with tissue factor (TF) antigen (human (from the antibody's name 'anti-human tissue factor'; not stated for the antigen lot in the assay)) (UniProt P13726). The test can be described thus: SPR (ProteOn XPR36): Fab captured via His tag on anti-penta His surface, TF injected, 1:1 fit.
The target is the same in test [2]. The test can be described thus: SPR (ProteOn XPR36), Fab captured on anti-penta His, TF analyte; against wild-type D3H44 Fab.
For test [3], the target named is tissue factor (TF) antigen (UniProt P13726). The test can be described thus: SPR (ProteOn XPR36), Fab captured on anti-penta-His surface, TF injected as analyte, 1:1 fit.
The target is the same in test [4]. Kind of test: SPR (ProteOn XPR36), Fab captured on anti-penta-His surface, TF injected as analyte, 1:1 fit; reference wild-type D3H44 Fab.
For test [5], the target named is D3H44 light chain Q38E_Q124E_Q160E_T180E. Kind of test: LCCA, SPR tag readout, L1:L2 DNA 1:3 normalized to 1:1; competitor m26.
The target of test [6] is D3H44 light chain Q38R_Q124R_Q160K_T178R. The test can be described thus: LCCA, SPR tag readout, L1:L2 DNA 1:3 normalized to 1:1; competitor m19.
Test [7] deals with tissue factor (TF) antigen (UniProt P13726). Kind of test: SPR (ProteOn XPR36), Fab captured on anti-penta His, TF injected at 0.74-60 nM, 1:1 model; median.
For test [8], the target named is D3H44 Fab heavy chain S186R, ABD2-His6 tagged. Kind of test: LCCA, SPR of light chain tags; L1:L2 DNA 1:3 normalized to 1:1; competing light chain m19.
For test [9], the target named is D3H44 Fab heavy chain L143E_K145T_Q179D, ABD2-His6 tagged. Described as above.
Test [10] has as its target D3H44 Fab heavy chain S186K, ABD2-His6 tagged. Described as above.
The target in test [11] is D3H44 Fab heavy chain L143E_K145T_Q179E, ABD2-His6 tagged. Described as above.
For test [12], the target named is D3H44 Fab heavy chain L124W_L143F_K145T_Q179E, ABD2-His6 tagged. The test can be described thus: LCCA, SPR of light chain tags; L1:L2 DNA 1:3 normalized to 1:1; competing light chain m14.
Test [13] concerns the target D3H44 light chain Q124E_V133G_S176D_T178E_T180E. The test can be described thus: LCCA (co-expression, SPR tag read-out), L1:L2 DNA 1:3 normalised to 1:1; competing light chain m8.
Test [14] concerns the target D3H44 light chain V133G_S176D_T178E_T180E. The test is described as above.
For test [15], the target named is D3H44 light chain Q124E_V133G_S176D_T178D_T180E. The description is as above.
Test [16] deals with D3H44 light chain V133G_S176D_T178D_T180E. The description is as above.
For test [17], the target named is D3H44 light chain V133G_Q160E_S176D_T180E. The test is described as above.
Test [18] concerns the target D3H44 light chain Q124E_V133G_S176D_T178E_T180E. The test can be described thus: LCCA (co-expression, SPR tag read-out), L1:L2 DNA 1:9 normalised to 1:1; competing light chain m8.
Test [19] has as its target D3H44 light chain V133G_Q160E_S176D_T180E. The test is described as above.
Test [20] addresses D3H44 light chain Q124E_V133G_S176D_T178E_T180E. The test can be described thus: LCCA (co-expression, SPR tag read-out), L1:L2 DNA 1:3 normalised to 1:1; competing light chain m7.
The target of test [21] is D3H44 light chain V133G_S176D_T178E_T180E. The test is described as above.
Test [22] concerns the target D3H44 light chain Q124E_V133G_S176D_T178D_T180E. The description is as above.
The target in test [23] is D3H44 light chain V133G_S176D_T178D_T180E. Described as above.
The target of test [24] is tissue factor (TF) antigen (UniProt P13726). The test can be described thus: SPR (ProteOn XPR36), Fab captured on anti-penta-His surface, TF injected as analyte, 1:1 fit; marked * (estimated from a Fab that differs only in the L chain tag); reference wild-type D3H44 Fab.
For test [25] the target is unchanged. The test can be described thus: SPR (ProteOn XPR36), Fab captured on anti-penta-His surface, TF injected as analyte, 1:1 fit; marked * (estimated from a Fab that differs only in the L chain tag).
For test [26] the target is unchanged. The test can be described thus: SPR (ProteOn), Fab captured via anti-penta-His, TF injected, 1:1 fit; reference wild-type D3H44 Fab; batch C (+).
For test [27] the target is unchanged. The test can be described thus: SPR (ProteOn), Fab captured via anti-penta-His, TF injected, 1:1 fit; batch C (+).
Test [28] has as its target D3H44 light chain Q38E_Q124E_Q160E_T180E. Kind of test: LCCA, SPR tag readout, L1:L2 DNA 1:3 normalized to 1:1; competitor m20.
Test [29] concerns the target D3H44 light chain Q124E_Q160E_T180E_C214S. The description is as above.
The target in test [30] is D3H44 light chain P44F_S131K. Kind of test: LCCA, SPR tag readout, L1:L2 DNA 1:9 normalized to 1:1; competitor m22.
Test [31] concerns the target D3H44 light chain Q124E_Q160E_T180E_C214S. The test can be described thus: LCCA, SPR tag readout, L1:L2 DNA 1:9 normalized to 1:1; competitor m20.
For test [32], the target named is D3H44 light chain P44F_S131K. The test can be described thus: LCCA, SPR tag readout, L1:L2 DNA 1:3 normalized to 1:1; competitor m22.
Test [33] has as its target D3H44 light chain P44F_S131K. Kind of test: LCCA, SPR tag readout, L1:L2 DNA 1:3 normalized to 1:1; competitor m19.

By Kd is commonly meant the free concentration of one partner at which half of the binding sites on the other are occupied at equilibrium, for simple one-to-one binding.

In turn, “D3H44 Fab heterodimer, H1 L124E_L143E_K145T / L1 Q124K_V133G_Q160K_S176R (H1L1 Fab of LCCA set 9277)” displayed a Kd in [1] of 200 pM. Also, in [2], the Change in median values of KD of h1l1 Fab heterodimer compared to wild type (-(log(KD design)-log(KD wt))) is -0.12.
Regarding “D3H44 H1L1 Fab heterodimer, H1 L124E_L143E_K145T, L1 Q124K_V133G_Q160K_S176R”, the Kd in test [3] was 200 pM. Also, the Change in median KD of h1l1 Fab heterodimer compared to wild type (-(log(KD design)-log(KD wt))) (log(KD) difference) in test [4] is -0.12.
For “D3H44 Fab heavy chain Q39E_L143E_K145T_Q179E”, the H1L1:H1L2 normalized median ratio in [5] was found to be 3%; in [6], 97%. The H1L1:H1L2 normalized median scalar value ln(r1/f1) in [6] is 3.58 and 1.58.
Regarding “wild-type D3H44 Fab heterodimer where the light chain contains a FLAG tag”, the equilibrium dissociation constant (Kd) in test [7] was 157 pM.
In the case of “D3H44 light chain Q124R_T178K, HA or FLAG tagged”, the H2L2:H2L1 normalized median ratio in test [8] and in test [10] was 3% throughout. In addition, the H1L1:H1L2 normalized median ratio in test [9] and in test [11] was 84% in each case. Besides, the H1L1:H1L2 normalized median scalar value ln(r1/f1) is 1.63 in test [9] and 1.69 in [11].
As for “D3H44 light chain Q124E_V133W_S176T_T178L_T180E, HA or FLAG tagged”, the H2L2:H2L1 normalized median ratio in [12] turned out to be 31%.
For D3H44 Fab heavy chain L124E_K145T_Q179E, the H1L1:H1L2 normalized median ratio in test [13] is 3 parts of 100; in [14], 3 parts of 100; in test [15] it was 4 parts of 100; in [16], 4 parts of 100; in test [17], 4 parts of 100; in test [18] it was 3 parts of 100. The H1L1:H1L2 normalized median ratio in test [19] is 5 parts of 100; in test [20], 5 parts of 100; in test [21], 5 parts of 100; in [22] it was 4 parts of 100; in [23], 5 parts of 100.
As to “D3H44 H1L1 Fab heterodimer, H1 L124E_L143E_K145T, L1 Q124K_V133G_S176R_T178R”, the Change in median KD of h1l1 Fab heterodimer compared to wild type (-(log(KD design)-log(KD wt))) (log(KD) difference) in test [24] is -0.07. Moreover, the dissociation constant (Kd) in test [25] was 180 pM.
As to “D3H44 Fab heterodimer (H1L1) of LCCA Set # 9851: H1 S186K, L1 Q124E_T178E_T180E”, in test [26], the change in median KD compared to wild type, -(log(KD design)-log(KD wt)) was 0.02. Further, in test [27], the Kd was found to be 150 pM.
For D3H44 Fab heavy chain L45P_K145T_Q179E, the H1L1:H1L2 normalized median ratio was 6% in [28]; 4% in test [29]; 93% in test [30]; 7% in test [31]; 96% in test [32]; 94% in test [33]. Further, the H2L2:H2L1 normalized median ratio was 6% in test [28]; 4% in [29]; 93% in [30]; 7% in test [31]; 96% in test [32]; 94% in test [33]. Moreover, the H1L1:H1L2 normalized median scalar value ln(r1/f1) in [30] came out at 2.54; in [32] it was 3.19; in [33], 2.83.
For the substance D3H44 Fab heavy chain L124R_Q179K, the H2L2:H2L1 normalized median ratio in test [13] is 92 parts of 100; in test [14], 92 parts of 100; in [17], 91 parts of 100; in test [18], 91 parts of 100; in test [19], 94 parts of 100; in test [20] it was 93 parts of 100. In test [21], the H2L2:H2L1 normalized median ratio is 93 parts of 100.
On to D3H44 Fab heavy chain L124R_S186K, for which the H2L2:H2L1 normalized median ratio was 91 parts of 100 in test [15], 90 parts of 100 in [16], 92 parts of 100 in test [22] and 91 parts of 100 in test [23].
“D3H44 Fab heterodimer, H1 A139C_L143E_K145T_Q179E / L1 F116C_Q124R_T178R (H1L1 Fab of LCCA set 9049)” had a Kd in test [1] of 160 pM. This substance also yielded a Change in median values of KD of h1l1 Fab heterodimer compared to wild type (-(log(KD design)-log(KD wt))) in test [2] of -0.01.
For the substance “D3H44 Fab heterodimer (H1L1) of LCCA Sets # 9829, 9830: H1 S186K, L1 Q124E_Q160E_T178E”, in [26], the change in median KD compared to wild type, -(log(KD design)-log(KD wt)) amounted to 0.41. This substance also returned a dissociation constant (Kd) in [27] of 60 pM.
In turn, “D3H44 H1L1 Fab heterodimer, H1 L124E_L143E_K145M, L1 Q124K_V133G_Q160K_S176R” came in with a Kd in test [3] of 280 pM. The substance further yielded a Change in median KD of h1l1 Fab heterodimer compared to wild type (-(log(KD design)-log(KD wt))) (log(KD) difference) in test [4] of -0.26.
Substance “D3H44 Fab heterodimer (H1L1) of LCCA Sets # 9979, 9983: H1 Q179K, L1 S131E” gave a change in median KD compared to wild type, -(log(KD design)-log(KD wt)) in test [26] of 0.05. The substance further yielded a Kd in [27] of 140 pM.
